What was measured:
[1] = target: T1, MSR1-mediated DiI-OxLDL uptake in HEK293.Myc.hMSR1 cells (Homo sapiens, UniProt P21757); assay: Ligand uptake assay, DiI-OxLDL; type: cell-based
T1 construct: expressed in transfected cells; host or cells: HEK293 (lentiviral transduction, hygromycin selection)
T1 sequence (P21757 1-451): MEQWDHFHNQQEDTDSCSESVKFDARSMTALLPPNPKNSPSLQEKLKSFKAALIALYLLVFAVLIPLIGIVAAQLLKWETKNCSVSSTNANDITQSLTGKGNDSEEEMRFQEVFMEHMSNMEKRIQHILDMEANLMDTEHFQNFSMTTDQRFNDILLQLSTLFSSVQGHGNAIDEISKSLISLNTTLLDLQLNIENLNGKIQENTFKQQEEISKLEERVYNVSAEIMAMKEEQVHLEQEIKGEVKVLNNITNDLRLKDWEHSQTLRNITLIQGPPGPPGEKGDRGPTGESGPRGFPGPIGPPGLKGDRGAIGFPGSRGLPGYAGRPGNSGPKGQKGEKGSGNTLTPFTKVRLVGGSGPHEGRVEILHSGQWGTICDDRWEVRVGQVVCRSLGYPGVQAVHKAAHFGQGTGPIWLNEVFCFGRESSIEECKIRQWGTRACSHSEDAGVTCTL
Procedure: The resulting cell line, referred to here as “HEK293.Myc.hMSR1”, was selected and maintained in DMEM containing 10% FBS, NEAA, penicillin/streptomycin, L-glutamine, and 100 μg/mL hygromycin.
After 30 minutes, either oxidized or acetylated low-density lipoprotein (LDL) labeled with 1,1′ dioctadecyl-3,3,3′,3′-tetramethylindocarbocyanine perchlorate (referred to as “DiI-OxLDL” or “DiI-AcLDL,” respectively) was added to the cells at a constant concentration of 10 μg/mL. […] Results were analyzed using nonlinear regression (4-parameter logistics) with the Prism 7 program to obtain EC50 and IC50 values. The percentage of inhibition was calculated with the Relative Fluorescent Unit (RFU) values by using the following equation: […]
In the equation, “RFUBaseline” is the fluorescence value from the cells treated with 10 μg/mL ligand without antibodies, “RFUInhibition” is the minimum fluorescence value with for a particular antibody with 10 μg/mL ligand, and “RFUBackground” is the fluorescence value from cells without any ligand or antibodies.

His9-hMSR1 = target: T2, His9-hMSR1 (Homo sapiens, UniProt P21757); assay: Cross-competition between anti-MSR1 antibodies (OCTET bio-layer interferometry); type: binding; settings: label = first mAb (mAb-1) on His9-hMSR1 captured with anti-Penta-His Octet biosensors; value = competing mAb-2
T2 construct: human MSR1 extracellular domain expressed with a N-terminal nonahistidine tag; purchased R&D Systems 2708-MS
T2 sequence (P21757 77-451 limits assumed): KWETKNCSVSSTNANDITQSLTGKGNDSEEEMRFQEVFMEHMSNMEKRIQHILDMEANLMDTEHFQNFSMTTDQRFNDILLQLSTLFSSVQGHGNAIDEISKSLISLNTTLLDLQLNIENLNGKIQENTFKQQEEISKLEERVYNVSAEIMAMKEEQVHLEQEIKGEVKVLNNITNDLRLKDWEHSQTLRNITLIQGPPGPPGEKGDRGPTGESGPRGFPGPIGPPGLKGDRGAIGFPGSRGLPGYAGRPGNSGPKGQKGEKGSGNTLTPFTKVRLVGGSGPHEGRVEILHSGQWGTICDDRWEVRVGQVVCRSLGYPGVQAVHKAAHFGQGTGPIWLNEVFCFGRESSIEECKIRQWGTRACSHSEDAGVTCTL
Procedure: Binding competition between different anti-MSR1 antibodies was assessed using a real time, label-free bio-layer interferometry assay on an OCTET® HTX biosensor platform (Pall FortéBio Corp., Menlo Park, Calif.). The experiment was performed at 25° C. in 10 mM HEPES, 150 mM NaCl, 3 mM EDTA, 0.05% v/v Surfactant Tween-20, and 1 mg/mL BSA, pH 7.4 (HBS-EBT) buffer with the plate shaking at the speed of 1000 rpm.
To assess whether different antibodies are able to compete with one another for binding to their respective epitopes on the recombinant human MSR1 extracellular domain expressed with a N-terminal nonahistidine tag (SEQ ID NO: 688) (His9-hMSR1; R&D Systems, Cat #2708-MS), around […] of His9-hMSR1 was first captured onto anti-Penta-His antibody coated OCTET® biosensor tips (“Penta-His” disclosed as SEQ ID NO: 690) (Pall FortéBio Corp., #18-5122) by submerging the biosensor tips for 45 seconds into wells containing a […] solution of His9-hMSR1. The antigen-captured biosensor tips were then saturated with a first anti-MSR1 monoclonal antibody (subsequently referred to as “mAb-1”) by immersion into wells containing a […] solution of mAb-1 for 4 minutes. The biosensor tips were then submerged into wells containing a […] solution of a second anti-MSR1 monoclonal antibody (subsequently referred to as “mAb-2”) for 4 minutes. All of the biosensor tips were washed in HBS-EBT buffer in between each step of the experiment. The real-time binding response was monitored during the course of the experiment and the binding response at the end of each step was recorded. […] Table 17 explicitly defines the relationships of antibodies competing in both directions, independent of the order of binding.

[2] = target: T3, Ac-LDL binding to His9-hMSR1 (Homo sapiens, UniProt P21757); assay: Competition sandwich ELISA, Ac-LDL; settings: anti-MSR1 antibody 100 nM, 50 pM Ac-LDL
T3 construct: human MSR1 extracellular domain expressed with a N-terminal nonahistidine tag; purchased R&D Systems 2708-MS
T3 sequence (P21757 77-451 limits assumed): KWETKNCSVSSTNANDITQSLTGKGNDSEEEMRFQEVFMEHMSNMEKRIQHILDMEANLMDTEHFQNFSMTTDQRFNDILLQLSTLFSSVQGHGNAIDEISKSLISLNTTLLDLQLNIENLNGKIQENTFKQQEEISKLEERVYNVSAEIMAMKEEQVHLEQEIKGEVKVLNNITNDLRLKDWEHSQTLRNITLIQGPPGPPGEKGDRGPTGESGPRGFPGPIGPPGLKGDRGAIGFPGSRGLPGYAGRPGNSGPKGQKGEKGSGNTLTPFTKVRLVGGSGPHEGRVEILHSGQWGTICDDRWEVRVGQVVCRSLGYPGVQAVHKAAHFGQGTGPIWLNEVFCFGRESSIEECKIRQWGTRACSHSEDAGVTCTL
Procedure: (§1) The ability of anti-MSR1 antibodies disclosed herein to block the binding of various ligands to human MSR1 was measured using three competition sandwich ELISA assays. The ligands used in the assays were: (1) acetylated LDL (Ac-LDL), (2) oxidized LDL (Ox-LDL), and (3) advanced glycation end-products of bovine serum albumin (AGE-BSA).
(§2) Anti-MSR1 antibodies or isotype control antibodies were serially diluted as appropriate for each tested ligand and added in duplicate for each serial dilution set to microtiter plates coated with His9-hMSR1. Buffer alone was also added to wells on each coat. […] This assay was conducted in four different assay runs.
(§3) Data analysis was performed using a sigmoidal dose-response model within Prism™ software (GraphPad). Percent blockade at maximum concentration of the antibody tested in each assay was calculated as an indicator of the ability of the antibodies to block the binding of Ac-LDL, Ox-LDL or biot-AGE-BSA to His9-hMSR1 on the plate relative to the baseline of the assay. In the calculation, binding signal of the same concentrations of Ac-LDL, Ox-LDL, or biot-AGE-BSA used for the assays in the absence of antibody was referenced as 100% binding or 0% blocking, while the baseline of the assay, defined as binding signal of the sample of buffer without MSR1 ligands or antibody, was referenced as 0% binding or 100% blocking. The maximum percent blockade at the highest concentration of antibody tested in each assay are reported for all antibodies.

[3] = target: T4, Ox-LDL binding to His9-hMSR1 (Homo sapiens, UniProt P21757); assay: Competition sandwich ELISA, Ox-LDL; settings: anti-MSR1 antibody 500 nM, Ox-LDL 10 nM
T4 construct: human MSR1 extracellular domain expressed with a N-terminal nonahistidine tag; purchased R&D Systems 2708-MS
T4 sequence (P21757 77-451 limits assumed): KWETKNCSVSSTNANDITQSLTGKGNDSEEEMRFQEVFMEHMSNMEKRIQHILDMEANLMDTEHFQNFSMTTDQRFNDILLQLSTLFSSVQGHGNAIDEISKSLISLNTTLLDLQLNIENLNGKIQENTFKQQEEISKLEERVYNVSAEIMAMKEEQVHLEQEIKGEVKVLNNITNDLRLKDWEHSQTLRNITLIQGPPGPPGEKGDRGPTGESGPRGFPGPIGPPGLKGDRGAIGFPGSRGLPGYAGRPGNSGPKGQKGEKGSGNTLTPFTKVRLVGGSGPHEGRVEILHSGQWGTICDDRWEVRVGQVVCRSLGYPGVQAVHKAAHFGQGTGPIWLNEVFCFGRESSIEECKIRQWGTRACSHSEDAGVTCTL
Procedure: as §1, §2, §3

[4] = target: T5, biot-AGE-BSA binding to His9-hMSR1 (Homo sapiens, UniProt P21757); assay: Competition sandwich ELISA, biot-AGE-BSA; settings: anti-MSR1 antibody 300 nM, 400 pM biot-AGE-BSA
T5 construct: human MSR1 extracellular domain expressed with a N-terminal nonahistidine tag; purchased R&D Systems 2708-MS
T5 sequence (P21757 77-451 limits assumed): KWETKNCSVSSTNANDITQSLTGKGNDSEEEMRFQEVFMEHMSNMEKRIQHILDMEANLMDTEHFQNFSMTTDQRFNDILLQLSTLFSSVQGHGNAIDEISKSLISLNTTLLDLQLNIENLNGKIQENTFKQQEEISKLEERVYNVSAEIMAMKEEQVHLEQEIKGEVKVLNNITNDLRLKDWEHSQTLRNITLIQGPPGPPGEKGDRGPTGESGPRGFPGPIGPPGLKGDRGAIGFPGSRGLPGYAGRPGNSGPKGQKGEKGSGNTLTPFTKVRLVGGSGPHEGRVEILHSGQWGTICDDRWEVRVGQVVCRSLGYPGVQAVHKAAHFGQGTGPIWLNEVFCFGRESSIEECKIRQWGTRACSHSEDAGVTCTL
Procedure: as §1
For the assay, recombinant monomeric human MSR1 protein comprised of a portion of the human MSR1 extracellular domain expressed with a N-terminal 9-Histidine tag (SEQ ID NO: 688) (His9-hMSR1; R&D Systems, Cat #2708-MS) was coated at a concentration of […] in PBS on a 96-well microtiter plate overnight at 4° C. for use in competition ELISA assays with Ac-LDL, Ox-LDL, or biotinylated-AGE-BSA (“biot-AGE-BSA”). […] Anti-MSR1 antibodies or isotype control antibodies were serially diluted as appropriate for each tested ligand and added in duplicate for each serial dilution set to microtiter plates coated with His9-hMSR1. Buffer alone was also added to wells on each coat. After 1 hour incubation at room temperature, without wash, a final constant concentration of 50 pM Ac-LDL (Life Technologies/ThermoFisher Scientific, Cat #L-35354), 5 nM or 10 nM Ox-LDL (Alfa Aesar, Cat #J65591), or 400 pM biot-AGE-BSA (R&D Systems, Cat #BT4127) were added to plates with His9-hMSR1, and the plates were incubated for an additional 1 hour at room temperature. (Concentrations of Ac-LDL, Ox-LDL and biot-AGE-BSA for antibody inhibition assays were selected from the approximate midway point within the linear portion of individual binding curves of Ac-LDL, Ox-LDL or biot-AGE-BSA to plate-coated His9-hMSR1.) Wells were washed, and plate-bound Ac-LDL or Ox-LDL were detected with anti-LDL rabbit antibody (Alfa Aesar, Cat #J64398) in combination with anti-rabbit IgG (H+L) specific donkey polyclonal antibodies conjugated with horseradish peroxidase (HRP) (JacksonImmunoResearch, Cat #711-035-152) and biot-AGE-BSA was detected with a streptavidin-HRP (ThermoFisher Scientific, Cat #N200). Plates were developed using TMB substrate solution (BD Biosciences, Cat #51-2606KC & Cat #51-2607KC) according to manufacturer's recommendation and absorbance at 450 nm was measured on a Victor™ Multilabel Plate Reader (PerkinElmer™). This assay was conducted in four different assay runs.
as §3, with “antibodies. Negative percent blockade numbers reflected higher MSR1 ligands binding to plate coated His9-hMSR1 in the presence of antibodies.” for “antibodies.”

Row | Molecule | inhibition of DiI-OxLDL uptake (in words) [1] | IC50, Dil-Oxidized LDL ([1]; 10 μg/mL DiI-OxLDL) | % Inhibition, Dil-Oxidized LDL ([1]; maximum inhibition of uptake, 10 μg/mL DiI-OxLDL) | mAb-2 antibodies which Compete with mAb-1 (His9-hMSR1) | % Blocking of Ac-LDL binding to His9-hMSR1 [2] [%] | % Blocking of Ox-LDL binding to His9-hMSR1 [3] [%] | % Blocking of biot-AGE-BSA binding to His9-hMSR1 [4] [%]
1 | H1H27729P-N297Q: anti-MSR1 antibody; "Antibody H1H27729P-N297Q showed no inhibition of DiI-OxLDL uptake" (antibody, V domains shown) VH: QVQLVESGGGLVKPGGSLRLSCAASGFIFSDYYMSWIRQAPGKGLEWVSYISSSGTTIYGDSVKGRFTMSRDNAKNSLYLQMNSLRAEDTAVYYCARNYALFDYWGQGTLVTVSS VL: DIQMTQSPSSLSASVGDRVTITCQASQDISKYLNWYQQKPGKAPKLLIYYTSNLETGVPSRFSGSGSGTDFTFTISSLQPEDIATYYCHQSDYLPFTFGPGTKVDIKR | no inhibition of DiI-OxLDL uptake | no inhibition | no inhibition | Data Inconclusive** | – | – | –
2 | H1H21227N-N297Q: "modified versions of 21227N (H1H21227N-N297Q and H1H21227N-N297D)"; anti-MSR1 antibody "with a N297Q single point mutation" (antibody, V domains shown) VH: QVQLVQSGAEVKKPGASVKVSCKVSGYTLTELSIHWVRQVPGKGLEWMGGFDPEEGETIFAQEFRDRVTLTEDTSPDTAYMELSSLKSEDAAVYYCTTPRYCNNGICYDYWGQGTLVTVSS VL: DIQMTQSPSSLSASVGDRVTITCRASQSISNYLNWYQQKPGKAPKLLIYTASSLQSGVPSRFSGSGSGTDFTLTISSLQTEDFATYYCQQSYSNFPITFGQGTRLEIKR | – | – | – | Data Inconclusive** | 105 | 97 | 96
3 | H1H21227N: "Three anti-MSR1 antibodies ... (21227N, 21231N, 21234N) were produced with the original human Fcγ portion" (antibody, V domains shown) VH: QVQLVQSGAEVKKPGASVKVSCKVSGYTLTELSIHWVRQVPGKGLEWMGGFDPEEGETIFAQEFRDRVTLTEDTSPDTAYMELSSLKSEDAAVYYCTTPRYCNNGICYDYWGQGTLVTVSS VL: DIQMTQSPSSLSASVGDRVTITCRASQSISNYLNWYQQKPGKAPKLLIYTASSLQSGVPSRFSGSGSGTDFTLTISSLQTEDFATYYCQQSYSNFPITFGQGTRLEIKR | – | – | – | Data Inconclusive** | 105 | 100 | 99
